Results on 41 sequences are retold here after the nanobody polyreactivity screen of Harvey et al. (2022).

The data set can be described thus: yeast display, Sf9 membrane polyspecificity reagent, FACS + sequencing; frameworks hold sequencing errors. The method in brief:
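Sorting gates, low and high (top ~1%), were placed on anti-HA fluorescence to track expression and on streptavidin fluorescence to track reagent binding. A clone's polyreactivity label is taken from the gate it came out of. The reagent was 10% biotinylated, detergent-solubilized Sf9 membrane, applied for 1 hour at 4 °C to galactose-induced yeast display cells.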
With “QVQLVESGVGLVQAGGSLRISCAASGFIFVTNVMGWYRQAPGKEREFVAAITARGGTTYYADSVKGRFTISRDNAKNTVYLQMNRLKPEDTAVYYCAAGYGVIKSLSHFYYWGQGTQVTVSS”, the “polyreactivity (PSR sort gate)” value is listed as “low polyreactivity”. Under “QVQLVESGVGLVQAGGSLRISCAASGRILGYYAMGWYRQAPGKEREMVAGISYSAGRTYYADSVKGRFTISRDNAKNTVYLQMNSLKPEDTAVYYCAKALVRSGSTRGTTGYYYWGQGTQVTVSS” stands “high polyreactivity”. “QVQLVESGVGLVQAGGSLRISCAASGSTFAAKSMGWYRQAPGKEREWVAVIRRGGSTTYADSVKGRFTISRDNAKNTVYLQMNSLKPEATAVYYCAASLYGKGDYWGQGTQVTVSS”: the “polyreactivity (PSR sort gate)” value is listed as “high polyreactivity”. As to “QVQLVESGVGLVQAGGSLRLICAASGFILGQNAMGWYRQAPGKEREFVADISWSGDSTYYADSVKGRFTISRDNAKNTVYFQMNSLKPEDTAVYYCAADPYYNWGYYYWGQGTQVTVSS”, the “polyreactivity (PSR sort gate)” value is listed as “low polyreactivity”. Consider “QVQLVESGVGLVQAGGSLRLICAASGSIFGYNAMGWYRQAPGKERELVAAISRSGGRTYYADSVKGSFTISRDNAKNTVYLQMNSLKPEDTAVYYCAASRPGLRTPGQMGYWGQGTQVTVSS”, for which the “polyreactivity (PSR sort gate)” value is “high polyreactivity”.

Regarding “QVQLVESGVGLVQAGGSLRLSCAASGFIFKRYAMGWYRQAPGKERELVATISNSGGRTYYADSVKWRFTISRDNAKNTVYLQMNSLKPEDTAVYYCAALPFWWGGYWGQGTQVTVSS”, the “polyreactivity (PSR sort gate)” value is “high polyreactivity”. For the sequence “QVQLVESGVGLVQAGGSLRLSCAASGFIFWLYAMGWYRQAPGKERELVAGITRGGGSTYYADSVKRRFTISRDNAKNTVYLQMNSLKPEDTAVYYCAADAWSSYLDRPFDYWGQGTQVTVSS”, the “polyreactivity (PSR sort gate)” value is listed as “high polyreactivity”. For the sequence “QVQLVESGVGLVQAGGSLRLSCAASGFTFDDNAMGWYRQAPGKERDFVASITNSTGSTYADSVKGRFTISRDNAKNTFYLQMNSLKPEDTAVDYCAVDNISNWAVENDYWGQGTQVTVSS”, the “polyreactivity (PSR sort gate)” value is reported as “low polyreactivity”.

As to “QVQLVESGVGLVQAGGSLRLSCAASGGIFGKYVMGWSRQAPGKERELVAAITLRGGSTYYADSVKGRFTISRDNAKNTVYLQMNSLKPEDTAVYYCPRRAYQNWYNYWGQGTQVTVSS”, the “polyreactivity (PSR sort gate)” value is “high polyreactivity”. Consider “QVQLVESGVGLVQAGGSLRLSCAASGIFYGYAMGWYRQAPGKERELVAAISSGGSTYYADSVKGRFTISRDNAKNTVYLQMISLNPEDTAVYYCAAGKKRPGWTFPRYYWGQGTQVTVSS”, for which the “polyreactivity (PSR sort gate)” value is reported as “high polyreactivity”. Take “QVQLVESGVGLVQAGGSLRLSCAASGIIFASNGMGWYRQAPGKERELVAAISSGGSTNYADSVKGRFTISRDNAKNTVYLQMNSLKPEDTAVYYCAADRWNREYDYWGQGTQVTVSS”: the “polyreactivity (PSR sort gate)” value was “low polyreactivity”. “QVQLVESGVGLVQAGGSLRLSCAASGLIFFFYAMGWYRQAPGKERELVASISGGGITYYADSVKGRFTISRDNAKNTVYLQMNSLKPEDTAVIKNDYWGQGTQVTVSS”: the “polyreactivity (PSR sort gate)” value is “low polyreactivity”. As to “QVQLVESGVGLVQAGGSLRLSCAASGLIFGRNVMGWYRQAPGKERVLVAAISWSGGRTYYADSVKGRFTISRDNAKNTGYLQMNRLKPEDTAVDYCATDRSTRTYRSPYDYWGQGTQVTVSS”, the “polyreactivity (PSR sort gate)” value is on record as “high polyreactivity”. Consider “QVQLVESGVGLVQAGGSLRLSCAASGLIFYHNAMGWYRQAPGKERELVAAISRSGGRTYYADSVKGRFTISRDNAKNTVYLQMNSLKPEDSAVYYCAVYRSSDFDYWGQGTQVTVSS”, for which the “polyreactivity (PSR sort gate)” value is “high polyreactivity”.

As to “QVQLVESGVGLVQAGGSLRLSCAASGLTFDYNAMGWYRQAPGKERELVARISRSGGTTYYADSVKGRFTISRDNAKNTVYLQMNSLKPEDTAVYYCAAERYYVGAYGYWGQGTQVTVSS”, the “polyreactivity (PSR sort gate)” value was “high polyreactivity”. With “QVQLVESGVGLVQAGGSLRLSCAASGRIFAGYAMGWYRQAPGKERELVATISSGGSTYYADSVKGRFTISRDNAKNTVYLQMNSLKPEDTAVYYCAAEYGTRQYSSYYKLFNYWGQGTQVTVSS”, the “polyreactivity (PSR sort gate)” value is reported as “low polyreactivity”. For “QVQLVESGVGLVQAGGSLRLSCAASGRIFHYNAMGWYRQAPGKERELVAAISTGGSTNYADSVKGRFTISRDNAKNTVYLQMNSLKPEDTAVYYCAADRTLSYEYWGQGTQVTVSS”, the “polyreactivity (PSR sort gate)” value is on record as “low polyreactivity”. “QVQLVESGVGLVQAGGSLRLSCAASGRIFTLNAMGWYRQAPGKERELFAGISRTGGSTYYADSVKVRFPISRDNAKNTVYLQMNSLKPEDTAVYYCAAAGFRRQPGAGAYYYWGQGTQVTVSS”: the “polyreactivity (PSR sort gate)” value is “high polyreactivity”.

Turning to “QVQLVESGVGLVQAGGSLRLSCAASGRNFAYYAMGWYRQAPGKERELVAAISSGGTTNYADSVKGRFTISRDNAKNTVYLQMNSLKPDDTAVYDCNADGWRRSRQYYYWGQGTQVTVSS”, the “polyreactivity (PSR sort gate)” value is on record as “low polyreactivity”. Next, “QVQLVESGVGLVQAGGSLRLSCAASGRTFFNYVMGWYRPAPGKERELVAAISRSGGSTYYADSVKGRFTLSRDNAKNTVYLQMNSLKPEDTAVYYCAADKYYEYYWGQATQVTVSS”: “high polyreactivity”.

Turning to “QVQLVESGVGLVQAGGSLRLSCAASGRTFGYYAMGWYRLAPGKERELVAAISSGGSTNYADSVKGRFTISRDNAKNTVYLQMNSLKPEDTAVYYCAAKAWYYPGRRNYYQYYYWGQGTQVTVSS”, the “polyreactivity (PSR sort gate)” value is “high polyreactivity”. Next, “QVQLVESGVGLVQAGGSLRLSCAASGRTFPPYAMGWYRQAPGKERELVAAISSDGSTYADSVKGRFTISRDNAKNTVYLQMNSLKPEDTAVYYCAVDYTYSYRKHFGHILYSWGQGTQVTVSS”: “low polyreactivity”; “QVQLVESGVGLVQAGGSLRLSCAASGRTFPSYNMGWYRQAPGKERELVAAITWTGGSTYYSDSVKGRFTISRDNAKNTVYLQMNSLKPEDTAVYYCATEEVYGQGNYWGQGTQVTVSS”: “low polyreactivity”. As for “QVQLVESGVGLVQAGGSLRLSCAASGRTFRANAMGWYRQAPGKERELVAAITWDGGSTYYADSVKGRFTISRDNAKNTVYLLMYSLKPEDTAVYYCNTYPYLWGQGTQVTLSS”, the “polyreactivity (PSR sort gate)” value is given as “low polyreactivity”. For the sequence “QVQLVESGVGLVQAGGSLRLSCAASGRTFVYAMGWYRQAPGKERELVAAISYNGGSTYYADSVKGRFTISRDNAKNTVYLQMNSLKPEDTAVYYCAADISVGRYGDMDYWGQGTQVTVSS”, the “polyreactivity (PSR sort gate)” value is on record as “low polyreactivity”. Under “QVQLVESGVGLVQAGGSLRLSCAASGSIFDANTMGWYRQAPGKERELVAAITGSGASTYYADSVKGRFTISRDNAKNTVYLQMNSLKPEDSAVYYCAARRYTSYYKDGWYAYYYWGQGTQVTVSS” stands “high polyreactivity”; under “QVQLVESGVGLVQAGGSLRLSCAASGSIFGRNAMGWYRQAPGKERELVARISYIGGSTYYADSVKGRFTISRDNEKNTVYLQMNSLKPEDTSVYYCAKRYGFGYKRMDYWGQGTQVTVSS”, “low polyreactivity”. With “QVQLVESGVGLVQAGGSLRLSCAASGSIFIRNAMGWYRQAPGKERELVAAISGSGSSTYYADSVKGRFTISRDTAKNTVYLQMNILKPEDTAVYYCNTDRTHSYQYGGYDYWGQGTQVTVSS”, the “polyreactivity (PSR sort gate)” value is on record as “low polyreactivity”. Next, “QVQLVESGVGLVQAGGSLRLSCAASGSIFLTYDMGWYRPAPGKERELVAAITGSGDSTYYADSVKGRFTISRDNAKNTVYLQMNSLKPEDTAVYYCNTLVGVDFWLVDYWGQGTQVTLSS”: “low polyreactivity”; “QVQLVESGVGLVQAGGSLRLSCAASGSIFQSYDMGWYRQAPGKERELVAAISWSGSTTYYADSVKGRFTISRDNAKNTVYLQMNSLKPEDTAVYYCAVDSNPPDWWAVIYGFWGQGTQVTVSS”: “low polyreactivity”; “QVQLVESGVGLVQAGGSLRLSCAASGSIFVNYAMGWYRQAPWKERELVAAITLRGGSTFYADSVKGRFTISRDNAKNTVYLQMHSLKPEDTAVYYCAASSLRYRAYKSLFDFWGQGTQVTVSS”: “low polyreactivity”.

With “QVQLVESGVGLVQAGGSLRLSCAASGSSFTSNAMGSYRQAPGKEREFVAAISVGGGITYYADSVKGRFTISRDNAKNTVYLQMYSLKPEDTAVYYCAADGEYPHSEDFEYWGQGTQVTVSS”, the “polyreactivity (PSR sort gate)” value is “low polyreactivity”. For the sequence “QVQLVESGVGLVQAGGSLRLSCAASGSTFFIYPMGLYRQAPGKERELVAAIRSGGTYYADSVKGRFTISRDNAKNTVYLQMNSLNPEDTAVYYCAARTRGFRYYYWGQGSQVTVSS”, the “polyreactivity (PSR sort gate)” value was “high polyreactivity”. As for “QVQLVESGVGLVQAGGSLRLSCAASGSTFGGYAMVWYRQAPGKESELVAAIYSSGGNTNYADSVKGRFTISRDNAKNTVYLQMNSLIPEDTAVYYCARDTQLPHFYGRVSEYDYWGQGTQVTVSS”, the “polyreactivity (PSR sort gate)” value was “low polyreactivity”. On to “QVQLVESGVGLVQAGGSLRLSCAASGSTFYPNAMGWYRQAPRKERELVAAISRGTRTKYADSVKGRFTISRDNAKNTVYLQMNSLKPEDTAVYYCAADTGTGLDWGQGTQVTVSS”, for which the “polyreactivity (PSR sort gate)” value was “high polyreactivity”. Take “QVQLVESGVGLVQAGGSLRLSCAASGSTFYSNAMGWNRQAPGKERELVASISWSSGSTYYADSVKGRFTISRDNAKNTVYLQMNSLKPEDTAVYYCATDAGGPYRFGYWGQGTQVTVSS”: the “polyreactivity (PSR sort gate)” value is given as “low polyreactivity”.

For “QVQLVESGVGLVQAGGSLRLSCAASGSTFYYYAMGWYRQAPGKERELVAAISWSGASTFYADSVKGRFTISRDNAKITVYLQMNSLKPEDTAVFYCAARYYGQPQYQPLYYWGQGTQVTVSS”, the “polyreactivity (PSR sort gate)” value was “high polyreactivity”. Under “QVQLVESGVGLVQAGGSLRLSCAASGSTIQYYAQGRYRQAPGKEREFVAAISISGGSTYYADSLKGRFTISRDNAKNTVYLQMNSLIPEDSEVYYCAARKKEYKPGKYWGQGTQVTVSS” stands “low polyreactivity”; under “QVQLVESGVGLVQAGGSLRLSCAASGYIFYQYAMGWYRQAPGKERELVSTISWRGGSTYYADSVKGRFTISRDNAKNTVYLQMNCLKPEDTAVYYCAARKRPYTVINGMDYWGQGTQVTVSS”, “low polyreactivity”; under “QVQLVESGVGLVQAGGSLRLSCAASGYTFQINAMGWYRQAPGKERELVAAITSGGRTYYADSVKGRFTISRDNAKNTVYLQMNSLKAEDTAVYYCNKVPRRGVDYWGQGTQVTVSW”, “low polyreactivity”. Next, “QVQLVESGVGLVQAGGSLRLSCAPSGSTFWVNGMGWYRPAPGKERELVASISQSGDNTYYADSVKGRFTISRDNAKNTVYLQMNSLKPEDTAVSYCATRYQYGGFLYYRFDDWGQGTQVTVSS”: “high polyreactivity”.
